According to the supplement of paper PMC7877785:
± gives the uncertainty stated by the source.

Assay: self-splicing fitness, log relative to wild type (ln ratio); higher = more splicing; Tetrahymena group I intron in knt gene, E. coli kanamycin selection, DiMSum; sequences stand for … in CUCUCU…GGAGGGAAAAGUUAUCAGGCAUGCACCUGGUAGCUAGUCUUUAAACCAAUAGAUUGCAUCGGUUUAAAAGGCAAGACCGUCAAAUUGCGGGAAAGGGGUCAACAGCCGUUCAGUACCAAGUCUCAGGGGAAACUUUGAGAUGGCCUUGCAAAGGGUAUGGUAAUAAGCUGACGGACAUGGUCCUAACCACGCAGCCAAGUCCUAAGUCAACAGAUCUUCUGUUGAUAUGGAUGCAGUUCACAGACUAAAUGUCGGUCGGGGAAGAUGUAUUCUUCUCAUAAGAUAUAGUCGGACCUCUCCUUAAUGGGAGCUAGCGGAUGAAGUGAUGCAACACUGGAGCCGCUGGGAACUAAUUUGUAUGCGAAAGUAUAUUGAUUAGUUUUGGAGUACUCGUGGUCG
Method in brief: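 A randomised library covering all eight P1ex-region intron nucleotides was built with the intron in the knt kanamycin-resistance gene on pET-22b(+) and held in E. coli BL21(DE3). Cells were grown overnight at 37°C or 30°C on LB agar, with or without 25 μg/mL kanamycin, plus 100 μg/mL carbenicillin, 50 μM IPTG and 0.2% rhamnose, and pooled colonies were amplicon-sequenced on an Illumina HiSeq 2500. DiMSum fitness is the error-weighted combination of wild-type-normalised replicate fold changes, kanamycin versus none.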

Sequence	self-splicing fitness (ln) (37 °C)	self-splicing fitness (ln) (30 °C)
AAGGAGCAAUAUUACGUAGU	-2.03 ± 0.27	
GAGUAGCAAUAUUACGUCUU	-1.49 ± 0.17	-1.94 ± 0.16
UUGCAGCAAUAUUACGUCGG	-0.117 ± 0.11	-0.191 ± 0.089
CCAAAGCAAUAUUACGUAAC	-2.72 ± 0.28	-4.73 ± 0.27
UGGGAGCAAUAUUACGUACG	-2.34 ± 0.21	-2.41 ± 0.26
UAUGAGCAAUAUUACGAUUA	0.467 ± 0.093	-0.445 ± 0.094
CGGCAGCAAUAUUACGGGGA	-3.07 ± 0.21	-3.21 ± 0.16
CUAAAGCAAUAUUACGGAAU	-2.14 ± 0.22	-3.72 ± 0.24
AGCGAGCAAUAUUACGUCCA	-1.1 ± 0.15	-2.59 ± 0.15
UAAGAGCAAUAUUACGCAAA	-2.44 ± 0.21	-2.38 ± 0.21
GUGAAGCAAUAUUACGCCUU	-0.45 ± 0.17	-0.0499 ± 0.15
AAUAAGCAAUAUUACGGCUA	0.0369 ± 0.13	0.107 ± 0.1
UGCUAGCAAUAUUACGUAGU	-2.71 ± 0.25	-3.35 ± 0.2
CACCAGCAAUAUUACGAUUU	-1.52 ± 0.13	-3.36 ± 0.15
ACCAAGCAAUAUUACGUAUG	-2.53 ± 0.12	-3.59 ± 0.13
CUGUAGCAAUAUUACGUGGG	-2.05 ± 0.18	-3.78 ± 0.22
UAUCAGCAAUAUUACGUCUU	-0.155 ± 0.091	-1.65 ± 0.082
CCUGAGCAAUAUUACGGAUC	-2.53 ± 0.22	-2.1 ± 0.17
GAUAAGCAAUAUUACGCCAA	-2.16 ± 0.22	-1.91 ± 0.2

Sequence	self-splicing fitness (ln) (37 °C)	self-splicing fitness (ln) (30 °C)
UAGUAGCAAUAUUACGUCCU	-0.272 ± 0.15	-2.53 ± 0.21
UAACAGCAAUAUUACGUGUC	-2.35 ± 0.13	-4.05 ± 0.14
UAACAGCAAUAUUACGUCAG	-0.0779 ± 0.085	-1.53 ± 0.073
AAUGAGCAAUAUUACGUCAA	-2.59 ± 0.46	-2.4 ± 0.21
AUAUAGCAAUAUUACGAUAA	-0.229 ± 0.39	-1.38 ± 0.31
GUCGAGCAAUAUUACGGGUA	-2.91 ± 0.22	-2.65 ± 0.27
AUUCAGCAAUAUUACGGUCG	-0.679 ± 0.14	-0.857 ± 0.085
AUGUAGCAAUAUUACGACAU	-0.557 ± 0.033	-1.39 ± 0.014
AUCGAGCAAUAUUACGACAA	-2.2 ± 0.18	-2.78 ± 0.18
GCUUAGCAAUAUUACGUUCA	-1.21 ± 0.17	-1.01 ± 0.15
CGUCAGCAAUAUUACGCGAG	-0.926 ± 0.17	-4.12 ± 0.36
ACAAAGCAAUAUUACGGGGG	-2.19 ± 0.16	-2.81 ± 0.13
CUUAAGCAAUAUUACGGCCC		-2.8 ± 0.4
GAAAAGCAAUAUUACGGGCG	-0.282 ± 0.1	-1.32 ± 0.071
CCACAGCAAUAUUACGGCAA	-2.74 ± 0.32	-2.92 ± 0.29
UACCAGCAAUAUUACGGGGG	-1.77 ± 0.13	-2.5 ± 0.14
GCUGAGCAAUAUUACGUCAC	-1.66 ± 0.36	-2.4 ± 0.37
CUCUAGCAAUAUUACGAUUA	-2.85 ± 0.25	-3.01 ± 0.29
CAAGAGCAAUAUUACGACUG	-1.19 ± 0.19	-1.57 ± 0.12
